The target in the assay is F-actin. Briefly: cosedimentation with F-actin through a sucrose cushion, SDS-PAGE.

MacMARCKS had a Kd of 53 nM and a stoichiometry (actin monomers per MacMARCKS) of 12.

(Values after US5885772.)
